Here are results for 1 molecule from US20060216303A1 (published 2006).

Test [1] deals with T1, synthetic polypeptide 20-mer … of the breast mucin tandem repeat.
T1 construct: also called synthetic peptide started at the beginning of the 20 amino acid repeat
The experiment in a line: binding to synthetic 20-mer.

The target of test [2] is T2, synthetic polypeptide 20-mer APPAHGVTSAPDTRPAPGST of the breast mucin tandem repeat.
T2 construct: also called synthetic peptide started in the middle of the repeat
T2 peptide: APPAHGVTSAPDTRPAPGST
As to the kind of experiment: binding to synthetic 20-mer.

T1 sequence (peptide, as listed by the source): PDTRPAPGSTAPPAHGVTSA

B1: murine BrE-3 monoclonal antibody (antibody, V domains shown)
VH: EVKLEESGGGLVQPGGSMKLSCAASGFTFSDAWMDWVRQSPEKGLEWVAEIRNKANNHATYYDESVKGRFTISRDDSKSRVYLQMISLRAEDTGLYYCTGEFANWGQGTLVTVSA
VL: DVVMTQTPLSLPVSLGDQASISCRSSQNLVHNNGNTYLYWFLQKSGQSPKLLIYRASIRFSGVPDRFSGSGSETDFTLKISRVEAEDLGVYFCFQGTHVPWTFGGGTKLEIK
notes: Whole murine antibody; The entries are printed with a 19-residue leader; also called anti-BrE-3 murine antibody; murine BrE-3 antibody
B1: the binding result in test [1] and in test [2] was “binds” throughout.
